# Experiment: soluble on expression in E. coli; label from the status in PepcDB or PDB records
row,Sequence,soluble on expression in E. coli
1,RHMASIEKVANCIRCLAADIVQGGKSGHPGTPMGMAPMSAVLWTEVMKYNSQDPDWVDRDRFVMSNGHGCALQYALLHMAGYNLTMDDLKGFRQDGSRTPGHPERFVTPGVEVTTGPLGQGIANAVGLAIAEAHLAATFNRPGYNIVDHYTYVYCGDGCLMEGVCQEALSLAGHLALEKLIVIYDSNYISIDGSTSLSFTEQCHQKYVAMGFHVIEVKNGDTDYEGLRKALAEAKATKGKPKMIVQTTTIGFGSSKQGTEKVHGAPLGEEDIANIKAKFGRDPQKKYDVDDDVRAVFRMHIDKCSAEQKAWEELLAKYTAAFPAEGAAFVAQMRGELPSGWEAKLPTNSSAIATRKASENCLAVLFPAIPALMGGSADLTPSNLTRPASANLVDFSSSSKEGRYIRFGVREHAMCAILNGLDAHDGIIPFGGTFLNFIGYALGAVRLAAISHHRVIYVATHDSIGVGEDGPTHQPVELVAALRAMPNLQVIRPSDQTETSGAWAVALSSIHTPTVLCLSRQNTEPQSGSSIEGVRHGAYSVVDVPDLQLVIVASGSEVSLAVDAAKALSGELRVRVVSMPCQELFDAQPDTYRQAVLPAGVPVVSVEAYVSFGWEKYSHAHVGMSGFGASAPAGVLYKKFGITVEEVVRTGRELAKRFPDGTAPLKNSSFSKM,soluble
2,MGSDKIHHHHHHMPRPRRTQISLEDTPFYHCCSRVVRRAFLCGDDSYSGKNYDHRRAWVESLLFELEAVFAIDVVAFAVMSNHLHVVLRIDVETANRWSDREVLEQWHKLFKGDELTQKFAKGGLVEADEVNRLRHSIAIYRSRLCDISWFMRCLNEPIARQANQEDNCTGRFWEGRFKSQALLDEAAVLACMTYVDLNPIRAQMADTLEQSAHTSIQLRIQAALKDEQPKNLLPFIGNERDNQPIGITFSLIDYLQLVDDTGRIIRNDKLGAITENSAKLLTRLNIHHDNWLKLTTEFGKLFHGPVGTLQELTDYCEHLEKRRRHFAKCCQHLNAG,not soluble
3,GAMAPATVNVEVLQDKLDHPWALAFLPDNHGMLITLRGGELRHWQAGKGLSAPLSGVPDVWAHGQGGLLDVVLAPDFAQSRRIWLSYSEVGDDGKAGTAVGYGRLSDDLSKVTDFRTVFRQMPKLSTGNHFGGRLVFDGKGYLFIALGENNQRPTAQDLDKLQGKLVRLTDQGEIPDDNPFIKESGVRAEIWSYGIRNPQGMAMNPWSNALWLNEHGPRGGDEINIPQKGKNYGWPLATWGINYSGFKIPEAKGEIVAGTEQPVFYWKDSPAVSGMAFYNSDKFPQWQQKLFIGALKDKDVIVMSVNGDKVTEDGRILTDRGQRIRDVRTGPDGYLYVLTDESSGELLKVSPR,soluble
4,MEYGVLSWWDYGNWIVYVGKRPAVSNNFQTGVEDSANFLLTDSEEEAKTIVEKLKVKYVMTDTLMAEGKFSSITSLAGKEIGEYYEVETVKGDTGLRTVATPKQALLQTQVYKLHKLDGTSLGHFRLVHESAVNSTDDGNSKENTVKVFEYVKGATLEHHHHHH,soluble
5,MGSDKIHHHHHHMKRVSVVILNWNGVDMLRKFIPSVMDNSVGEGIEICVADNASSDGSLEMLRSEFPVVRLIELDQNYGFAEGYNRALEQVDAEYVVLLNSDVEVTPHWLEPLLDYMDTHSGTVACQPKLLSWHNKEYFEYAGASGGFIDRYGYPFCRGRIFDVVEKDCGQYDTITEVMWVTGAALFIRLADYREVGGLDGHFFAHMEEIDLCWRLRSRGKKLVCIPQSVVYHVGGATLKKENPRKTFLNFRNNLLMLYKNLPDKELEHVLFIRGILDRVAALVFYLKKDRANARAVMQARREFEDIRYSFAASRIENMMKSTDEIIPERTHFSIVMKYYLLGKKHFSQLKLF,not soluble
6,MAEMTEMQVHEERVMNLVESSSGTPTITPLTKTNAHRAESIRRIGTDKDAVAFHFRKKSTGMYMYIHTYTENGEEKELRASDFKNWEVTEFKYPGYLEELEEIAVNAYRWNSHDPETRAETDIMGYEKQLHEDLKKIPEAKKRITSILTKVKYPFYSTASHAAQTRW,not soluble
7,MILMRTIDWNEESNSVVLVDQTLLPQEYKVIECKTLSSLCEAIQSLRIRGAPALGAAGGFGIALAAYLSGAKDIESMTKDLKVAAKALKSTRPTAVNLAWGVDRVLNAISDAFDFRGIRDIALQEARDIAEEDIETNKLIGKYGAKLLKDGDTVLTHCNAGRLACVDWGTALGVVRSAIADGKEIKVLACETRPLNQGSRITTWELMQDKIPVTLIADSMAGWAMRQGLVNSVLVGADRITQDVVFNKIGTYTHSILAREHEIPFYVAAPVSTFDFEGWEGSIKIEMRNPDELRFAGCQQLAPEDVPVYNPAFDATPMENVTALITERGVFYPPILLDEVLVLEHHHHHH,not soluble
8,MGSDKIHHHHHHMNVYEKGNGVILEGVTDFDPVHIFECGQCFRWHKQEDGSYTGVAKGRILNVKKENDKIYLNNTNLKEFNSIWYNYFDLGTDYTEIKNKLKNMDEYLNKATEFGWGIRILRQDGWEMLISFIISSNNRIPMIQRAIENLSRKFGKYIGEYEGNEYYAFPTPEELNKASQEEIRACQTGFRDKYIKSTTQAVIENNDEVSEYTNLSTEDCRKELLKFNGVGPKVCDCIALFGMQKYDSFPVDVWVKRVMQEFYIDEDMSLPKMRTYGIDKFKEMSGFAQQYLFYYARELGIGK,not soluble
9,MGSDKIHHHHHHMKLVKTGILPLDTQLGGGMPAGSVVSVFEEPGAGADVLSYHFTVEGATHGENVFYLATDDSSEEIREYINLYFDLDEAVWENITLLSLRASMQQEEGEKDAKDFLRKTIYDPIGGIKTILSHEEFERVVINNFTYFLANYPIEDVIALIDVLSNYAKRNQSVVMLLVTKGMFDPRTETTVKHYSDGVIELTLKEVENEVQRRLKVVKFKGILVPKAILRYELTDKGIKMESVMRVL,not soluble
10,MGSDKIHHHHHHMNFFEIVNAHLSELSPNEQKLFDYVVTNMGQIKNQSIREVASATFVSTATFLRFVKKIGFSGFSEFTTVIKFTLINRQEAERTTPFVVQQKDYREEYLKNIGESIRVIQPDHLRQVVDRLAQHPDVFFFAKGVSKHAVAYIDYLYTMAGFKTHFPRDHDYRKQALTQVDNDALVFILTYKGSDGEMLDMMSQLVGRPVRPLLVSITEPDNNTIQNLSDINFYIFTDGVTVNGTDISSRISTISVMELILYQYVEDYGGRDFHFQRQLES,not soluble
11,MAHHHHHHMTSLQNLFVAKLPRNLTDADLHQIFVQYNPTSAKVMLDATTGKSKGFGFVLFASEDAGRTAYEKLNKTHVTLHGHNFNLCIFPSKHDGKVAMEESNALYVRNIPLKLSQAEVEQFLRGFGPLTYCAMREDNFGGSVWVVYAEFDSVESAKRALMSLHGNRTYFNTSVAILAKYADSEETKRERRRRREQQQAEQQHLDTVHNFGSPTTGLDSNKGFAVQSQNTPLPPPPPPPMRTSPGHSSTGSTLASSYSTSDMHKEGTGASLHPPTFASISHHFAPGRHGGGGPPPAMGQPAAPPASSMLASSTLQPTQPVSGQPQQSPTPNSGSFLNVIFNPTSANNFGNSFTHYSVLDQTPSRSSPGTPLNFSFGPEMENSGALANGLGTGSHAMLSASGHAPMTPVRRSSNLSTSGSYRHNPYAPVTPVSSTHNSTGPSTPLVSSIAYPTAPLAIMHFGASHHLQGSPVALHPLGPGIGVANNHFASRGNNAYLAAPASFNDLSH,not soluble
12,SNLDGSAQDPEKREYSSVCVGREDDIKKSERMTAVVHDREVVIFYHKGEYHAMDIRCYHSGGPLHLGDIEDFDGRPCIVCPWHKYKITLATGEGLYQSINPKDPSAKPKWCSKGIKQRIHTVTVDNGNIYVTLSNEPFKCDSDFYATGDFKVIKSSS,soluble
13,MSLNKAMQEVNLEDSLKFFEQAANQPAALLKVQTQWWEQQLQIWQKVVLESKIQSIMEAEKGDKRFSHEAWQQDPFFNFIKQSYLLFSKTYLDTINAIEGLDEKAKERILFFSRQMINALSPSNFIATNPELLRLTLEKNGENLIAGLEQLKEDVASSADILKIRMTNNNAFRLGEDVANTPGEVVFKNEVFELIQYKPLTEQVAVTPLLIVPPFINKYYILDLREKNSMVRWLVEQGHSVFMISWRNPGAAQAQLNFEDYVLEGVVKAVNAIESITGQEQINAAGYCIGGTVLATTIAYYAAKRMKKRIKTASFFTTLLDFSQPGEVGAYINDTIIRAIELQNNAKGYMDGRSLSVTFSLLRENSLYWNYYVDNYLKGQSPVDFDLLYWNSDSTNVAGACHNFLLRELYLENKLVQDKGVKVGGVWIDLDKIKVPSYFISTKEDHIALWQGTYRGALRTGGNKTFVLGESGHIAGIVNHPDKRKYGYWVNDTLDDSAEDWLETAQHREGSWWVHWNEWLNGFADGSKVEPYPLGNADYPVLYSAPGEYVKQVLPIQEEGHHHHHH,soluble
14,MGSDKIHHHHHHMLAQVPNTISLQQELTPLLQHEWLPHINQRDYHSGSQGGWDVLALRCAEEYHAAHPILQAFSISAANEWDNLPALESSPTLLDFIQSLACPVKSVRFMRLHAGAEIKPHRDQGLSLEQGEARLHLPLQTHDQLYFYVNDQRVPMQAGELWYINADQSHWVANKGSSARINLVIDCKVNSWLRELIHGAKIKA,not soluble
15,MKFETLDFNDEKDIKNFKTDCGDLQDCFTALPCRPGSNNQLDKRLRSIEWVCKAIVFLTEDFSNCFDKLHEKNAECVQNWNPLPNEIYLEDDKMKVEKMKENACDTYFGKDDCVKKEIIERCGQEEWNTFRKVPN,not soluble
16,GAMGIVGVGIDLVSIPDFAEQVDQPGTVFAETFTPGERRDASDKSSSAARHLAARWAAKEAVIKAWSGSRFAQRPVLPEDIHRDIEVVTDMWGRPRVRLTGAIAEYLADVTIHVSLTHEGDTAAAVAILEAP,soluble
17,MIRLAPLITADVDTTTLPGGKASDAAQDFLALLSEALAGETTTDKAAPQLLVATDKPTAKGEPLVSDILSDAQQADLLIPVDETPPVINDEQSTLTPLTTAQTMTLAAVADKNTTKDEKADDLNEDVTASLSALFAMLPGFDNTPKVTDAPSTVLPAEKPTLFTKLTSAQLTTAQPDDAPGTPAQPLTPLVAEAQSKAEVISTPSPVTADASPLITPHQTQPLPTVAAPVLSAPLGSHEWQQSLSQHISLFTRQGQQSAELRLHPQDLGEVQISLKVDDNQAQIQMISPHQHVRAALEAALPVLRTQLAESGIQLGQSNISGESFSGQQQAASQQQQSQRTANHEPLAGEDDDTLPVPVSLQGRVTGNSGVDIFA,soluble
18,AHHHHHHGSEEYYVCPECGSEDVEVIKERGREVTLRCNECGYVWMITLPKLREIPVIVSKHERSFREKAVLPEDEVIKVGDVIEIENDQVKVLSIELPGGKRVRKAKVAEIQTIWGESLTYPKVFGVSIYLPGGITQSFKVVVDREEEFVVGEVIEVGGYTFKVEMIKTEKKLMRSGKAKAENIVRLMGHAIKGRARRKLKIYEGYDSISAENQ,not soluble
19,MAHHHHHHMDTSARRCFVEVYTDGCDEPRLLQLEPTVKFHNVLRRFDKDGDLYWGDHRIDPQTTPVAVGMDCGVDKANTLWFIPALPRAKPCGVSRVDSTAPLGSPPPVDATEGPALRPARGTSLPAYFDDRAAPWHSSGDHAARGSLIRAWMASASAATTPSWYSRPRLLSPVPLSLPRSAVRVPHTQVQPPSGMPTDPIMHAAGGSRHTGAPVAALEAHGGEKIAPVRRLCAAPAPRAPSPPHSTVPVRRNAPVCIDPHVLVDDTSDAVEALQTELRHLSSEMRAMRLRNPLDYNSVTPMRQVVVRPAGMDAAPAIASPICLSMAEPSVEELATELHDKQMHRLYKQRHLYLTHDFHV,not soluble

# Reference: the DeepSol protein solubility set
